In publication PMC9482650, “Quantitative fragmentomics allow affinity mapping of interactomes” (Nature Communications, 2022):
Numbering of substitutions follows the chain as printed.

T1: APBA1_2, Q02410
T1 sequence (Q02410 742-832, limits assumed, looked up): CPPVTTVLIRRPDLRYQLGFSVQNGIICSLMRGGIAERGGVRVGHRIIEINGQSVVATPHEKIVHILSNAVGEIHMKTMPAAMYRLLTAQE

T2: APBA2_1, Q99767
T2 sequence (Q99767 563-664, limits assumed, looked up): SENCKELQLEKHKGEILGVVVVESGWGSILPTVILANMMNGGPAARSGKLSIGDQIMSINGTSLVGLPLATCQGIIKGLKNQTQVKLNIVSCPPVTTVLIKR

T3: ARHGEF11, O15085
T3 sequence (O15085 42-136, limits assumed, looked up): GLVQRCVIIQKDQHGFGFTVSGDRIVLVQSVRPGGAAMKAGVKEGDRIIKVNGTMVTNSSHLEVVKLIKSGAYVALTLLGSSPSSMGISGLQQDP

T4: DLG3_1, Q92796
T4 sequence (Q92796 125-227, limits assumed, looked up): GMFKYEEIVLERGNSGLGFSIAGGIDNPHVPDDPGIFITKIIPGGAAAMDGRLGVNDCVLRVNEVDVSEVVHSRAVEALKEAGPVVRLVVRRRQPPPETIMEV

T5: LIN7A, O14910
T5 sequence (O14910 103-200, limits assumed, looked up): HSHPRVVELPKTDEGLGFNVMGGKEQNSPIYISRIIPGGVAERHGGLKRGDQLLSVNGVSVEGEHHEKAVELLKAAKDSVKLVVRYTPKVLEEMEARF

T6: LIN7C, Q9NUP9
T6 sequence (Q9NUP9 88-185, limits assumed, looked up): T5 sequence (O14910 103-200, limits assumed, looked up) with D13E, V20I, V40I, E42D, K77Q, D78G, S79K, A96S

T7: PARD3B_1, Q8TEW8
T7 sequence (Q8TEW8 196-299, limits assumed, looked up): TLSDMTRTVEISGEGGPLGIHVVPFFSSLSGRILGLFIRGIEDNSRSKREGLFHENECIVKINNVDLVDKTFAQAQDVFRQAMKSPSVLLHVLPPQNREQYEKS

T8: PCLO, Q9Y6V0
T8 sequence (Q9Y6V0 4491-4600, limits assumed, looked up): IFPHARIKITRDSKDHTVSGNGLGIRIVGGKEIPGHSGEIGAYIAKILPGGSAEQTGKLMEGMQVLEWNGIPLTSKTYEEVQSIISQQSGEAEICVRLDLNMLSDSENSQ

T9: RAPGEF6, Q8TEU7
T9 sequence (Q8TEU7 525-625, limits assumed, looked up): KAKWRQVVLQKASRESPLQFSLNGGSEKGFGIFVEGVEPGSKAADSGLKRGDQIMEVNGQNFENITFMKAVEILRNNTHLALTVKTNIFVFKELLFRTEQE

T10: SNTG2, Q9NY99
T10 sequence (Q9NY99 68-166, limits assumed, looked up): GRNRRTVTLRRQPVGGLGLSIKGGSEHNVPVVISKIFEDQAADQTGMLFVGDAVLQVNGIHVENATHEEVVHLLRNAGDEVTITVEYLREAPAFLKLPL

T11: TX1BP3, O14907
T11 sequence (O14907 10-122, limits assumed, looked up): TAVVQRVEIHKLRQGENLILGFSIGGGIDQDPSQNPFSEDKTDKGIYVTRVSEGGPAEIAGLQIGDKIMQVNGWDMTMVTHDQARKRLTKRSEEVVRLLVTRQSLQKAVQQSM

B1: DGKH, Q86XP1 (peptide)
chain: LGRSTPQSEV
B2: GRIK2, Q13002 (peptide)
chain: RRLPGKETMA
B3: GRIN2C, Q14957 (peptide)
chain: RRISSLESEV

Legend:
Test in all cases: holdup assay
Design in all cases: key: below the threshold = too weak to quantify, mostly under pKd 3.1 to 4
Conditions in all cases: plain residues with an end cap or a label only (N-terminal biotin on a linker: ado-ado)
AHNAK1, Q09666 = target: AHNAK1, Q09666
APBA1_2, Q02410 = target: T1, APBA1_2, Q02410
APBA2_1, Q99767 = target: T2, APBA2_1, Q99767
ARHGEF11, O15085 = target: T3, ARHGEF11, O15085
DLG1_2, Q12959 = target: DLG1_2, Q12959
DLG2_3, Q15700 = target: DLG2_3, Q15700
DLG3_1, Q92796 = target: T4, DLG3_1, Q92796
DLG5_1, Q8TDM6 = target: DLG5_1, Q8TDM6
FRMPD2_3, Q68DX3 = target: FRMPD2_3, Q68DX3
FRMPD3, Q5JV73 = target: FRMPD3, Q5JV73
GRASP, Q7Z6J2 = target: GRASP, Q7Z6J2
GRIP2_7, Q9C0E4 = target: GRIP2_7, Q9C0E4
HTRA2, O43464 = target: HTRA2, O43464
Inadl_10, Q8NI35 = target: Inadl_10, Q8NI35
Inadl_9, Q8NI35 = target: Inadl_9, Q8NI35
LIMK2, P53671 = target: LIMK2, P53671
LIN7A, O14910 = target: T5, LIN7A, O14910
LIN7C, Q9NUP9 = target: T6, LIN7C, Q9NUP9
LNX1_1, Q8TBB1 = target: LNX1_1, Q8TBB1
LNX1_2, Q8TBB1 = target: LNX1_2, Q8TBB1
MAGI2_6, Q86UL8 = target: MAGI2_6, Q86UL8
MAGI3_2, Q5TCQ9 = target: MAGI3_2, Q5TCQ9
PARD3B_1, Q8TEW8 = target: T7, PARD3B_1, Q8TEW8
PCLO, Q9Y6V0 = target: T8, PCLO, Q9Y6V0
RAPGEF6, Q8TEU7 = target: T9, RAPGEF6, Q8TEU7
SNTG2, Q9NY99 = target: T10, SNTG2, Q9NY99
TX1BP3, O14907 = target: T11, TX1BP3, O14907

Chain of DLG1_2, Q12959 (Q12959 314-412): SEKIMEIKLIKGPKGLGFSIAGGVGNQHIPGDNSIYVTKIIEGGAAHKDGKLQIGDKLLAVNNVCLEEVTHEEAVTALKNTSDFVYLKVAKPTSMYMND
Chain of DLG5_1, Q8TDM6 (Q8TDM6 617-713): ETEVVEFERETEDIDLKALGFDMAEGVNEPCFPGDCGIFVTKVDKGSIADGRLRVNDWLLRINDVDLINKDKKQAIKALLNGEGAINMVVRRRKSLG
Chain of AHNAK1, Q09666 (Q09666 4-100): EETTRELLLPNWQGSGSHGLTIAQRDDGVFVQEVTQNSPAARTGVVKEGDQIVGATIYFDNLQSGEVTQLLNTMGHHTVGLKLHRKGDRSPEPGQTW
Chain of Inadl_9, Q8NI35 (Q8NI35 1530-1615): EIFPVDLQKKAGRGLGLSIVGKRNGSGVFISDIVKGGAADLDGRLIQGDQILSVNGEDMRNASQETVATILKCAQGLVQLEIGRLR
Chain of HTRA2, O43464 (O43464 355-458): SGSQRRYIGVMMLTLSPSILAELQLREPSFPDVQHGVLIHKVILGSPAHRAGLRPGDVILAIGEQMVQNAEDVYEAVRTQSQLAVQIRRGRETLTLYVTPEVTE
Chain of LIMK2, P53671 (P53671 143-248): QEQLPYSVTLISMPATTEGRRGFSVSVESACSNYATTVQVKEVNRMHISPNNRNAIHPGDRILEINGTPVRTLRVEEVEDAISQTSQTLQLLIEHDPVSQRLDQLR
Chain of Inadl_10, Q8NI35 (Q8NI35 1673-1763): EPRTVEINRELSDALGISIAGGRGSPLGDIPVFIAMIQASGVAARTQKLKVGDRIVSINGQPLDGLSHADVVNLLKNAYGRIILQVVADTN
Chain of FRMPD3, Q5JV73 (Q5JV73 12-100): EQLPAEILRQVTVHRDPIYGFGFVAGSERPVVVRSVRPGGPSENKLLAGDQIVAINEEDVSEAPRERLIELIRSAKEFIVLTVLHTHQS
Chain of LNX1_2, Q8TBB1 (Q8TBB1 371-470): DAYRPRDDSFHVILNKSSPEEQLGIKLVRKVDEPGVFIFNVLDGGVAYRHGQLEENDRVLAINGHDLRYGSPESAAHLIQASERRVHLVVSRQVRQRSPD
Chain of FRMPD2_3, Q68DX3 (Q68DX3 1073-1166): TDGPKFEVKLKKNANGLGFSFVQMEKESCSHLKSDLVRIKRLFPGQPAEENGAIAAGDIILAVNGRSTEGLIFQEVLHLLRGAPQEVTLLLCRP
Chain of GRIP2_7, Q9C0E4 (Q9C0E4 934-1023): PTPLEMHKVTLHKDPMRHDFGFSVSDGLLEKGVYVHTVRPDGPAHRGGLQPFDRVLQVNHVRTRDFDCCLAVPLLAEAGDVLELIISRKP
Chain of GRASP, Q7Z6J2 (Q7Z6J2 96-193): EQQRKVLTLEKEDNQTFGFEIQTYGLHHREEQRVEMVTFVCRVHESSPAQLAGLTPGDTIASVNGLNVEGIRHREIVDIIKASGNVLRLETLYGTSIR
Chain of MAGI3_2, Q5TCQ9 (Q5TCQ9 398-503): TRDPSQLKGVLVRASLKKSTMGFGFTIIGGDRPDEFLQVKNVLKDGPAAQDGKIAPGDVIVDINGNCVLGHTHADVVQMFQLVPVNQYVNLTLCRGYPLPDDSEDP
Chain of LNX1_1, Q8TBB1 (Q8TBB1 261-371): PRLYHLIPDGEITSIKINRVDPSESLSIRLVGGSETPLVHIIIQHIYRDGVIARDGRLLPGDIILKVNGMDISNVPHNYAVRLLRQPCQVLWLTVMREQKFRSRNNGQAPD
Chain of MAGI2_6, Q86UL8 (Q86UL8 1141-1229): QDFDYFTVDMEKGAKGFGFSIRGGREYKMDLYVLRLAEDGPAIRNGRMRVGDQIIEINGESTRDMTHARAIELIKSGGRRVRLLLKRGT

Binder | pKd (AHNAK1, Q09666) | pKd (APBA1_2, Q02410) | pKd (APBA2_1, Q99767) | pKd (ARHGEF11, O15085) | pKd (DLG1_2, Q12959) | pKd (DLG2_3, Q15700) | pKd (DLG3_1, Q92796) | pKd (DLG5_1, Q8TDM6) | pKd (FRMPD2_3, Q68DX3) | pKd (FRMPD3, Q5JV73) | pKd (GRASP, Q7Z6J2) | pKd (GRIP2_7, Q9C0E4) | pKd (HTRA2, O43464) | pKd (Inadl_10, Q8NI35) | pKd (Inadl_9, Q8NI35) | pKd (LIMK2, P53671) | pKd (LIN7A, O14910) | pKd (LIN7C, Q9NUP9) | pKd (LNX1_1, Q8TBB1) | pKd (LNX1_2, Q8TBB1) | also measured
B1 | below the threshold | 3.64 | below the threshold | 4.15 | 4.01 | below the threshold | below the threshold | below the threshold | below the threshold | below the threshold | 3.51 | below the threshold | below the threshold | below the threshold | below the threshold | below the threshold | below the threshold | below the threshold | 4.01 | below the threshold | pKd (MAGI2_6, Q86UL8): below the threshold; pKd (MAGI3_2, Q5TCQ9): 4.04; pKd (PARD3B_1, Q8TEW8): below the threshold; pKd (PCLO, Q9Y6V0): below the threshold; pKd (RAPGEF6, Q8TEU7): below the threshold; pKd (SNTG2, Q9NY99): below the threshold; pKd (TX1BP3, O14907): 4.03
B2 | below the threshold | below the threshold | below the threshold | below the threshold | 3.66 | 3.8 | below the threshold | below the threshold | below the threshold | below the threshold | below the threshold | below the threshold | below the threshold | below the threshold | below the threshold | below the threshold | below the threshold | below the threshold | below the threshold | below the threshold | pKd (MAGI2_6, Q86UL8): below the threshold; pKd (MAGI3_2, Q5TCQ9): below the threshold; pKd (PARD3B_1, Q8TEW8): below the threshold; pKd (PCLO, Q9Y6V0): below the threshold; pKd (RAPGEF6, Q8TEU7): 3.53; pKd (SNTG2, Q9NY99): below the threshold; pKd (TX1BP3, O14907): below the threshold
B3 | below the threshold | 3.75 | below the threshold | 3.98 | 5.51 | 4.44 | 4.37 | below the threshold | below the threshold | below the threshold | below the threshold | below the threshold | below the threshold | below the threshold | below the threshold | below the threshold | below the threshold | 4.29 | 4.34 | below the threshold | pKd (MAGI2_6, Q86UL8): 4.31; pKd (MAGI3_2, Q5TCQ9): 4.96; pKd (PARD3B_1, Q8TEW8): below the threshold; pKd (PCLO, Q9Y6V0): below the threshold; pKd (RAPGEF6, Q8TEU7): below the threshold; pKd (SNTG2, Q9NY99): 4.24; pKd (TX1BP3, O14907): 5
